B1: TMEM106C (parent)
chain: FTGRDSITCLTCQGTGYIPTEQVN

Variants of: B1
Experiment: protein stability index of a GFP-peptide fusion (GPS, HEK-293T) (PSI 1-6); higher = more stable
Conditions: c terminus: a fixed tail appended
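Also: lentivirally expressed fusions sorted by FACS into six bins by GFP to DsRed ratio, PSI derived from sequencing read proportions per bin multiplied by bin number.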

Variant	protein stability index
FTGRDSITCITCQGTGYIPTEQVN	1.98
FTGRDSITCETCQGTGYIPTEQVN	3.8
FTGRDSITCHTCQGTGYIPTEQVN	2.84
FTGRDSITCTTCQGTGYIPTEQVN	2.65
FTGRDSITCFTCQGTGYIPTEQVN	3
FTGRDSITCQTCQGTGYIPTEQVN	3.17
FTGRDSITCNTCQGTGYIPTEQVN	2.77
FTGRDSITCMTCQGTGYIPTEQVN	1.91
FTGRDSITCCTCQGTGYIPTEQVN	1.99
FTGRDSITCVTCQGTGYIPTEQVN	2.2
FTGRDSITCWTCQGTGYIPTEQVN	2.01
FTGRDSITCSTCQGTGYIPTEQVN	2.85
FTGRDSITCGTCQGTGYIPTEQVN	2.02
FTGRDSITCYTCQGTGYIPTEQVN	3.42
FTGRDSITCRTCQGTGYIPTEQVN	2.36
FTGRDSITCKTCQGTGYIPTEQVN	2.7
FTGRDSITCATCQGTGYIPTEQVN	2.29
FTGRDSITCPTCQGTGYIPTEQVN	4.51
FTGRDSITCDTCQGTGYIPTEQVN	3.96
FEGRDSITCLTCQGTGYIPTEQVN	4.48
FRGRDSITCLTCQGTGYIPTEQVN	4.04
FCGRDSITCLTCQGTGYIPTEQVN	2.63
FDGRDSITCLTCQGTGYIPTEQVN	4.1
FKGRDSITCLTCQGTGYIPTEQVN	4.3

Variant	protein stability index
FHGRDSITCLTCQGTGYIPTEQVN	3.35
FPGRDSITCLTCQGTGYIPTEQVN	2.82
FAGRDSITCLTCQGTGYIPTEQVN	2.81
FVGRDSITCLTCQGTGYIPTEQVN	2.87
FYGRDSITCLTCQGTGYIPTEQVN	3.3
FFGRDSITCLTCQGTGYIPTEQVN	3.19
FNGRDSITCLTCQGTGYIPTEQVN	3.32
FIGRDSITCLTCQGTGYIPTEQVN	1.97
FLGRDSITCLTCQGTGYIPTEQVN	2.61
FGGRDSITCLTCQGTGYIPTEQVN	2.84
FQGRDSITCLTCQGTGYIPTEQVN	2.91
FSGRDSITCLTCQGTGYIPTEQVN	2.07
FWGRDSITCLTCQGTGYIPTEQVN	2.31
FMGRDSITCLTCQGTGYIPTEQVN	2.95
YTGRDSITCLTCQGTGYIPTEQVN	1.99
RTGRDSITCLTCQGTGYIPTEQVN	4.35
VTGRDSITCLTCQGTGYIPTEQVN	4.43
KTGRDSITCLTCQGTGYIPTEQVN	4.29
LTGRDSITCLTCQGTGYIPTEQVN	4.16
PTGRDSITCLTCQGTGYIPTEQVN	4.63
QTGRDSITCLTCQGTGYIPTEQVN	4.65
WTGRDSITCLTCQGTGYIPTEQVN	4.06
TTGRDSITCLTCQGTGYIPTEQVN	4.76
MTGRDSITCLTCQGTGYIPTEQVN	4.77

Variant	protein stability index
NTGRDSITCLTCQGTGYIPTEQVN	4.48
HTGRDSITCLTCQGTGYIPTEQVN	4.52
GTGRDSITCLTCQGTGYIPTEQVN	4.15
ETGRDSITCLTCQGTGYIPTEQVN	4.7
CTGRDSITCLTCQGTGYIPTEQVN	3.92
ATGRDSITCLTCQGTGYIPTEQVN	4.7
ITGRDSITCLTCQGTGYIPTEQVN	3.94
DTGRDSITCLTCQGTGYIPTEQVN	4.88
STGRDSITCLTCQGTGYIPTEQVN	4.33
FTGMDSITCLTCQGTGYIPTEQVN	2.33
FTGVDSITCLTCQGTGYIPTEQVN	1.7
FTGGDSITCLTCQGTGYIPTEQVN	1.74
FTGNDSITCLTCQGTGYIPTEQVN	2.8
FTGWDSITCLTCQGTGYIPTEQVN	2.62
FTGEDSITCLTCQGTGYIPTEQVN	2.59
FTGSDSITCLTCQGTGYIPTEQVN	3.04
FTGLDSITCLTCQGTGYIPTEQVN	1.81
FTGHDSITCLTCQGTGYIPTEQVN	1.98
FTGYDSITCLTCQGTGYIPTEQVN	1.65
FTGCDSITCLTCQGTGYIPTEQVN	2.32
FTGTDSITCLTCQGTGYIPTEQVN	1.87
FTGIDSITCLTCQGTGYIPTEQVN	2.48
FTGADSITCLTCQGTGYIPTEQVN	1.86
FTGFDSITCLTCQGTGYIPTEQVN	2.52

Variant	protein stability index
FTGKDSITCLTCQGTGYIPTEQVN	2.12
FTGPDSITCLTCQGTGYIPTEQVN	2.41
FTGQDSITCLTCQGTGYIPTEQVN	2.46
FTGDDSITCLTCQGTGYIPTEQVN	3.14
FTGRDSWTCLTCQGTGYIPTEQVN	3.32
FTGRDSLTCLTCQGTGYIPTEQVN	2.07
FTGRDSRTCLTCQGTGYIPTEQVN	2.15
FTGRDSCTCLTCQGTGYIPTEQVN	1.73
FTGRDSGTCLTCQGTGYIPTEQVN	2.16
FTGRDSVTCLTCQGTGYIPTEQVN	1.77
FTGRDSATCLTCQGTGYIPTEQVN	2.22
FTGRDSMTCLTCQGTGYIPTEQVN	1.76
FTGRDSNTCLTCQGTGYIPTEQVN	2.15
FTGRDSKTCLTCQGTGYIPTEQVN	2.32
FTGRDSFTCLTCQGTGYIPTEQVN	1.6
FTGRDSHTCLTCQGTGYIPTEQVN	2.09
FTGRDSETCLTCQGTGYIPTEQVN	2.89
FTGRDSYTCLTCQGTGYIPTEQVN	2.68
FTGRDSQTCLTCQGTGYIPTEQVN	2.5
FTGRDSDTCLTCQGTGYIPTEQVN	2.83
FTGRDSSTCLTCQGTGYIPTEQVN	2.39
FTGRDSPTCLTCQGTGYIPTEQVN	2.23
FTGRDSTTCLTCQGTGYIPTEQVN	2.78
FTGRWSITCLTCQGTGYIPTEQVN	3.14

Variant	protein stability index
FTGRKSITCLTCQGTGYIPTEQVN	1.84
FTGRQSITCLTCQGTGYIPTEQVN	2.17
FTGRLSITCLTCQGTGYIPTEQVN	2.66
FTGRYSITCLTCQGTGYIPTEQVN	3.35
FTGRISITCLTCQGTGYIPTEQVN	2.65
FTGRESITCLTCQGTGYIPTEQVN	1.96
FTGRMSITCLTCQGTGYIPTEQVN	2.73
FTGRSSITCLTCQGTGYIPTEQVN	2.29
FTGRGSITCLTCQGTGYIPTEQVN	1.49
FTGRNSITCLTCQGTGYIPTEQVN	1.56
FTGRVSITCLTCQGTGYIPTEQVN	4.33
FTGRCSITCLTCQGTGYIPTEQVN	3.35
FTGRHSITCLTCQGTGYIPTEQVN	2.82
FTGRPSITCLTCQGTGYIPTEQVN	2.12
FTGRFSITCLTCQGTGYIPTEQVN	3
FTGRRSITCLTCQGTGYIPTEQVN	1.87
FTGRASITCLTCQGTGYIPTEQVN	1.94
FTGRTSITCLTCQGTGYIPTEQVN	2.15
FTGRDSITSLTCQGTGYIPTEQVN	2.28
FTGRDSITRLTCQGTGYIPTEQVN	1.52
FTGRDSITFLTCQGTGYIPTEQVN	2.86
FTGRDSITNLTCQGTGYIPTEQVN	1.94
FTGRDSITTLTCQGTGYIPTEQVN	1.82
FTGRDSITLLTCQGTGYIPTEQVN	2.04

Variant	protein stability index
FTGRDSITPLTCQGTGYIPTEQVN	2.1
FTGRDSITVLTCQGTGYIPTEQVN	1.9
FTGRDSITGLTCQGTGYIPTEQVN	1.75
FTGRDSITYLTCQGTGYIPTEQVN	2.75
FTGRDSITALTCQGTGYIPTEQVN	2
FTGRDSITQLTCQGTGYIPTEQVN	1.68
FTGRDSITHLTCQGTGYIPTEQVN	1.73
FTGRDSITILTCQGTGYIPTEQVN	3.25
FTGRDSITMLTCQGTGYIPTEQVN	2.88
FTGRDSITELTCQGTGYIPTEQVN	2.73
FTGRDSITDLTCQGTGYIPTEQVN	3.16
FTGRDSITKLTCQGTGYIPTEQVN	2.17
FTGRDSIVCLTCQGTGYIPTEQVN	2.09
FTGRDSISCLTCQGTGYIPTEQVN	2.4
FTGRDSIPCLTCQGTGYIPTEQVN	1.9
FTGRDSICCLTCQGTGYIPTEQVN	2.11
FTGRDSIYCLTCQGTGYIPTEQVN	2.15
FTGRDSIACLTCQGTGYIPTEQVN	2.91
FTGRDSIHCLTCQGTGYIPTEQVN	2.28
FTGRDSIMCLTCQGTGYIPTEQVN	2.4
FTGRDSIDCLTCQGTGYIPTEQVN	2.37
FTGRDSIRCLTCQGTGYIPTEQVN	1.41
FTGRDSIKCLTCQGTGYIPTEQVN	1.79
FTGRDSIQCLTCQGTGYIPTEQVN	2.37

Variant	protein stability index
FTGRDSINCLTCQGTGYIPTEQVN	1.92
FTGRDSIFCLTCQGTGYIPTEQVN	3.56
FTGRDSIECLTCQGTGYIPTEQVN	1.84
FTGRDSILCLTCQGTGYIPTEQVN	2
FTGRDSIWCLTCQGTGYIPTEQVN	2.22
FTGRDSIICLTCQGTGYIPTEQVN	1.82
FTLRDSITCLTCQGTGYIPTEQVN	3.45
FTTRDSITCLTCQGTGYIPTEQVN	2.04
FTERDSITCLTCQGTGYIPTEQVN	2.7
FTVRDSITCLTCQGTGYIPTEQVN	2.99
FTRRDSITCLTCQGTGYIPTEQVN	2.84
FTFRDSITCLTCQGTGYIPTEQVN	1.7
FTQRDSITCLTCQGTGYIPTEQVN	2.09
FTKRDSITCLTCQGTGYIPTEQVN	3.49
FTSRDSITCLTCQGTGYIPTEQVN	1.46
FTPRDSITCLTCQGTGYIPTEQVN	2.76
FTARDSITCLTCQGTGYIPTEQVN	2.79
FTWRDSITCLTCQGTGYIPTEQVN	1.48
FTDRDSITCLTCQGTGYIPTEQVN	1.85
FTYRDSITCLTCQGTGYIPTEQVN	2.45
FTCRDSITCLTCQGTGYIPTEQVN	1.89
FTMRDSITCLTCQGTGYIPTEQVN	2.81
FTHRDSITCLTCQGTGYIPTEQVN	1.7
FTIRDSITCLTCQGTGYIPTEQVN	2.33

Variant	protein stability index
FTNRDSITCLTCQGTGYIPTEQVN	2.12
FTGRDKITCLTCQGTGYIPTEQVN	2.34
FTGRDEITCLTCQGTGYIPTEQVN	2.73
FTGRDLITCLTCQGTGYIPTEQVN	2.16
FTGRDMITCLTCQGTGYIPTEQVN	1.79
FTGRDQITCLTCQGTGYIPTEQVN	2.05
FTGRDVITCLTCQGTGYIPTEQVN	2.5
FTGRDNITCLTCQGTGYIPTEQVN	2.58
FTGRDAITCLTCQGTGYIPTEQVN	2.27
FTGRDDITCLTCQGTGYIPTEQVN	2.58
FTGRDRITCLTCQGTGYIPTEQVN	2.45
FTGRDTITCLTCQGTGYIPTEQVN	2.43
FTGRDHITCLTCQGTGYIPTEQVN	2.43
FTGRDFITCLTCQGTGYIPTEQVN	2.38
FTGRDCITCLTCQGTGYIPTEQVN	1.99
FTGRDIITCLTCQGTGYIPTEQVN	2.92
FTGRDPITCLTCQGTGYIPTEQVN	2.18
FTGRDGITCLTCQGTGYIPTEQVN	1.9
FTGRDYITCLTCQGTGYIPTEQVN	2.04
FTGRDSITCLACQGTGYIPTEQVN	2.32

Reference: the supplement of paper PMC10567573
